Source: patent US20100129344A1, “MEDICAL USES AND THERAPIES BASED UPON THE ACTION OF AZUROCIDIN ON IGFBP-1” (priority 2005, published 2010)

T1: IGFBP-1 (Homo sapiens, UniProt P08833)
T1 construct: purchased Kabi Pharmacia (Sweden), donated
T1 sequence (P08833 26-259): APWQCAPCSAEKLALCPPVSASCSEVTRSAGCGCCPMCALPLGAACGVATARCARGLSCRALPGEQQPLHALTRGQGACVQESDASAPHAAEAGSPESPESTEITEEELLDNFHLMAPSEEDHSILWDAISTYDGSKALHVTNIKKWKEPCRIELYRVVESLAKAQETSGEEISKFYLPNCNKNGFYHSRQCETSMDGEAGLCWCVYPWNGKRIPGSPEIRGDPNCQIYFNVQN


How the values were obtained:
[1] = molecular target: T1, IGFBP-1; experiment: Azurocidin-dependent IGFBP-1 protease activity (SDS-PAGE, ECL or silver staining); format: biochemical; conditions: for effect on IGFBP-1 (proteolysis): commercial recombinant protein from mouse myeloma cells
Protocol: Recombinant phosphorylated IGFBP-1 was used as substrate and incubations were carried out under neutral conditions for 2 h at 37 C. IGFBP-1 fragments were separated on SDS-PAGE, and detected by ECL as described in the methods. Panel A: Incubations with 0.25 μL eluate (HE) from heparin affinity chromatography (50 μl urine equiv.) in the presence and absence of anti-azurocidin antibody; and 1 μl HE of the loading material (L), and the flow through after affinity chromatography on protein G columns without (G) and with bound anti-chymase (C) or anti-azurocidin (A) antibodies. Panel B: Incubations in the presence and absence of 25 ng anti-azurocidin antibody with increasing volumes of white cell extract from the individual with a specific IGFBP-1 protease in urine compared to the white cell extract pooled from 6 healthy subjects;
Recombinant IGFBP-1 was incubated with the eluate from heparin affinity chromatography (HE) with a ratio of azurocidin:BP-1 of 1:3,500. After the times indicated, proteins were detected by silver staining after SDS-PAGE;
Gels were fixed, dried and analysed with the Fuji PhosphoImage program (Fuji Co., Stockholm, Sweden). Biotinylated IGFBP-1 and its fragments were separated on 14% SDS-PAGE under reducing conditions, transferred to PVDF (Biorad, Sundbyberg, Sweden), incubated with neutravidin-horseradish peroxidase (Pierce Biotechnology Inc, Rochester, Ill.) and detected by ECL (Amersham Biosciences, Uppsala, Sweden). Silver staining of proteins and fragments was performed after denaturing 12% PAGE under reducing conditions (SilverQuest and NuPAGE, Invitrogen, Stockholm, Sweden).
Heparin affinity chromatography was carried out in batches using heparin-agarose gel (Pharmacia). Urine was diluted 1:5 in 10 mM sodium phosphate, with 0.25 M NaCl buffer, pH 7 and incubated with gel for 30 min at 4 C. The gel was transferred to a column and washed with 10 times the gel volume of buffer. Heparin binding proteins were eluted in loading buffer containing 2M NaCl and the eluate was desalted, concentrated using a 10 kDa spin column and stored at −80 C. Concentrated material derived from 700 ml urine were applied to C4 reverse-phase HPLC, in 0.1% TFA on an acetonitrile gradient of 0-100%. Immunoaffinity chromatography was performed using monoclonal anti-azurocidin antibody attached to protein G Sepharose (Sigma-Aldrich, Sweden). In brief, antibody bound gel was incubated with the eluate from heparin affinity chromatography for 2 h at 22 C, and transferred to a Bio-Spin chromatography column (BioRad). The flow-through was collected for analysis of protease activity. As controls, an additional column was prepared with a monoclonal antibody against human mast cell chymase and a second column with no bound antibody.

[2] = molecular target: T1, IGFBP-1; experiment: Sequence analysis of IGFBP-1 fragments after azurocidin-dependent proteolysis; format: biochemical
Protocol: A: Recombinant npIGFBP-1 was incubated without (−) and with (+) 0.25 μl partially purified azurocidin in a protease:substrate ratio of 1:3 500 for 2 h at 37 C. The fragments were purified on HPLC. N-, purified fragments with the N-terminal sequence of IGFBP-1, APWQCAP-, c-, small fragment with the sequence STYDGSK-, C-, purified C-terminal fragments with the sequence TNIKKWK-. Samples were separated on 12% SDS-PAGE and visualised by silver staining. Molecular mass markers are indicated by the arrows. B: Summary of sequence analysis of IGFBP-1 fragments after azurocidin-dependent proteolysis. N-terminal sequence analysis was performed on fragments purified by HPLC on 4 separate occasions. C-terminal sequence analysis was perform on one HPLC run. Cleavage sites are indicated by the arrows. a, the primary cleavage site present in 4 runs. b, a secondary cleavage site, present in 3 runs. c, cleavage sites, each identified in only one of the four runs. […]
The primary cleavage site in IGFBP-1 was determined by HPLC-separation of phosphorylated IGFBP-1 after incubation with heparin eluate, and HPLC purification of fragments, followed by N- and C-terminal sequencing. […] N- and C-terminal sequencer degradations were performed on HPLC purified proteins in ABI instruments as described (refs 2 and 3), From this analysis, the quantity of azurocidin quantity in urine was estimated to be 25 pmol/100 ml.

Row | effect on IGFBP-1 (proteolysis) ([1]; data not shown) | effect on IGFBP-1 (proteolysis) ([1]; data not shown, listed as recombinant azurocidin) | secondary cleavage site in IGFBP-1 ([2]; present in 3 of the HPLC runs) | primary cleavage site in IGFBP-1 ([2]; present in all 4 HPLC runs, confirmed by C-terminal sequence analysis) | IGFBP-1 proteolytic activity after exposure to 0.1% TFA ([1]; 0.1% TFA in HPLC buffer, lyophilization, reconstitution in assay buffer) | IGFBP-1 proteolytic activity after reduction with dithiothreitol ([1]; data not shown) | Molecule | IGFBP-1 protease activity ([1]; after heparin affinity chromatography of urine)
1 | no effect | lacked activity |  |  |  |  | Recombinant human azurocidin^27-250: recombinant azurocidin 27-250 purified from murine myeloma cells, R&D Systems (protein) IVGGRKARPRQFPFLASIQNQGRHFCGGALIHARFVMTAASCFQSQNPGVSTVVLGAYDLRRRERQSRQTFSISSMSENGYDPQQNLNDLMLLQLDREANLTSSVTILPLPLQNATVEAGTRCQVAGWGSQRSGGRLSRFPRFVNVTVTPEDQCRPNNVCTGVLTRRGGICNGDGGTPLVCEGLAHGVASFSLGPCGRGPDFFTRVALFRDWIDGVLNNPGPGP | 
2 |  |  | Val^141-Thr^142 | Ile^130-Ser^131 | abolished | loss of activity | partially purified azurocidin: desalted eluate of heparin affinity chromatography of human urine, containing azurocidin, myeloperoxidase and lactoferrin (protein) IVGGRKARPRQFPFLASIQNQGRHFCGGALIHARFVMTAASCFQSQNPGVSTVVLGAYDLRRRERQSRQTFSISSMSENGYDPQQNLNDLMLLQLDREANLTSSVTILPLPLQNATVEAGTRCQVAGWGSQRSGGRLSRFPRFVNVTVTPEDQCRPNNVCTGVLTRRGGICNGDGGTPLVCEGLAHGVASFSLGPCGRGPDFFTRVALFRDWIDGVLNNPGP | present
